Test results: patent US6861578B1, “Method for plant protection against insects or nematodes by transformation with a nucleic acid encoding equistatin” (Plant Research International B.V., priority 1997, dated 2005)
Where two headings read alike, the source gives them in different places.

Columns and labels:
[1] = target: proteases in extracts of adult western flower thrips (Frankliniella occidentalis); test: cell-based or functional assay
cysteine proteases = conditions: Yamashita and Konagaya (1996); cited from earlier work
[2] = system: T1, equistatin, isolated from sea anemone Actinia equina
T1 sequence: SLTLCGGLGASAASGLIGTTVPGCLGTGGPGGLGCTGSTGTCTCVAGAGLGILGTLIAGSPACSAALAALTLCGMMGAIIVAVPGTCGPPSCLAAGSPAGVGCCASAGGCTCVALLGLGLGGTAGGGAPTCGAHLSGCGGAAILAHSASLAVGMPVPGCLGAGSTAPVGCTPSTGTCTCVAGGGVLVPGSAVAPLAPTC

leafminer proteases = test: Protease activity of adult leafminer fly extract, FITC-hemoglobin; assay type: biochemical, Liriomyza trifolii
Procedure: (§1) Adult western flower thrips (Frankliniella occidentalis) and leafmirer flies (Liriomyza trifolii) adult were harvested from a culture maintained on chrysanthemum plants and complete thrips and flies were homogenized in extraction on buffer (200 mM β-alanine-HCl, pH 3.5) in a volume of 5 times the weight of the insects. The buffer pH was at the previously determined pH optimum of protease activity towards hemoglobin. Final instar Colorado potato beetle larvae maintained on potato plants as described in example 5 were checked for gut aspartic protease activity by preparing a total gut extract in pH 3 buffer which is optimal for Colorado potato beetle aspartic proteases (200 mM glycine, pH 3). Guts were homogenized in 100 μl buffer per gut. Third instar western corn rootworm larvae maintained on corn roots were used to remove the guts. Ten guts were homogenized in 100 μl water and spinned twice to remove insoluble material. Two types of buffers were used in the enzymatic assay. One with a pH presumably favoring cysteine proteases (50 mM MES, pH 6.5; 0.6 mg/ml L-cysteine) and one for detecting aspartic proteases (200 mM glycine, pH 3). Supernatants were stored at −20° C.
(§2) 2 μl gut extract was combined with 2 μl inhibitor (2 mM pepstatin in methanol, 4 mM E64 in water, 2 mg/ml recombinant equistatin in water. The concentration of the other proteinaceous inhibitors was not known exactly). Appropriate buffers were added to a final volume of 100 μl. After 15′ preincubation 20 μl substrate (5 mg/ml FITC-hemoglobin) was added and incubated for 30-45 min at 37 C.
(§3) Reaction was stopped by the addition of 100 μl 10% TCA. Tubes were centrifuged and 100 μl supernatant mixed with 100 μl 10 N NaOH was measured on a fluorimeter for the extent of hemoglobin hydrolysis. Measurements were done in duplicate on one (thrips, leafminer and western corn rootworm), or three (Colorado potato beetle) different gut extracts and varied by a maximum of +/−5%.

[3] = system: Colorado potato beetle proteases; test: Protease activity of Colorado potato beetle larval gut extract at pH 3, FITC-hemoglobin; assay type: biochemical, Leptinotarsa decemlineata; set-up: inhibition of total protease activity / increase of inhibition by addition of equistatin to E64 / increase of inhibition by addition of equistatin to pepstatin: concentration or dose not given beside the values
Procedure: as §1, §2, §3

[4] = system: western corn rootworm cysteine and aspartic protease activity; test: Protease activity of western corn rootworm larval gut extract, FITC-hemoglobin; assay type: biochemical, Diabrotica virgifera; conditions: recombinant equistatin
Procedure: as §1, §2, §3

thrips protease activity = test: Protease activity of adult western flower thrips extract, FITC-hemoglobin; assay type: biochemical, Frankliniella occidentalis; set-up: inhibition of protease activity: concentration or dose not given beside the values
Procedure: as §1, §2, §3

[5] = target: proteases in extracts of adult leafminer flies (Liriomyza trifolii); test: cell-based or functional assay
[6] = target: potato protease inhibitor-insensitive cysteine proteases of Colorado potato beetle (Leptinotarsa decemlineata) larval gut extracts; test: cell-based or functional assay
[7] = system: endoprotease activity of Colorado potato beetle larval gut extracts; test: Broad spectrum endoprotease activity of Colorado potato beetle gut extract, Z-Phe-Arg-pNA; assay type: biochemical, Leptinotarsa decemlineata
Source text: (§4) Guts of final instar Colorado potato beetle larvae reared on methyl jasmonate induced plants were isolated and extracted essentially as described (Bolter and Jongsma, J. Insect Physiol. 41: 1071-1078). In these gut extracts the proteases that are sensitive to the protease inhibitors of potato are already complexed. The residual protease activity is composed of potato protease-inhibitor-insensitive proteases which were induced in response to the methyl jasmonate induced potato inhibitors. These proteases are the proteases that render the beetle larvae insensitive to protease inhibitor defense of the potato plant. Wle tested a broad range of different cysteisie protease inhibitors for activity specifically against these induced potato protease inhibitor-insensitive cysteine protesses. Nearly all of these inhibitors were purified at the Jozef Stefan Institute in Slovenia. Testing their potential against Colorado potato beetle was done using both general protein substrates (azocasein, table 2) as well as specific synthetic substrates (L-Arg-pNA, table 3; pGlu-Phe-Leu-pNA, table 4; Z-Phe-Arg-pNA, table 5; Z-Arg-Arg-pNA, table 6). In specific cases inhibitors were tested at two concentrations, eauimolar and in excess to the protease, in order to obtain an indication of the tightness of the complex. […] Importantly, this class of inhibitors was capable of inhibiting nearly all general cysteine protease activity. The equistatin peptide molecule and a functional derivative thereof were not very active against the aminopeptidase-like cysteine protease activity. […] The best combination of inhibitors for full toxicity against the Colorado potato beetle would therefore be a combination of equistatin or p41 invariant chain fragment and stefin-like inhibitors.

[8] = system: amino-peptidase activity of Colorado potato beetle larval gut extracts; test: Amino-peptidase activity of Colorado potato beetle gut extract, L-Arg-pNA; assay type: biochemical, Leptinotarsa decemlineata
Source text: as §4

[9] = system: endoprotease activity of Colorado potato beetle larval gut extracts; test: Narrow spectrum endoprotease activity of Colorado potato beetle gut extract, Z-Arg-Arg-pNA; assay type: biochemical, Leptinotarsa decemlineata; conditions: excess inhibitor
Source text: as §4

[10] = system: tri-peptidil-peptidase and endoprotease activity of Colorado potato beetle larval gut extracts; test: Tri-peptidil-peptidase and endoprotease activity of Colorado potato beetle gut extract, pGlu-Phe-Leu-pNA; assay type: biochemical, Leptinotarsa decemlineata
Source text: as §4

[11] = system: Colorado potato beetle larval gut extracts (potato protease inhibitor-insensitive cysteine proteases); test: General proteolytic activity of Colorado potato beetle larval gut extracts, azocasein; assay type: biochemical, Leptinotarsa decemlineata
Source text: as §4

papain [12] = target: T2, papain (UniProt P00784 134-345); test: continuous rate enzyme inhibition assay with papain
T2 construct: also called cysteine proteinase, papain
T2 sequence (looked up): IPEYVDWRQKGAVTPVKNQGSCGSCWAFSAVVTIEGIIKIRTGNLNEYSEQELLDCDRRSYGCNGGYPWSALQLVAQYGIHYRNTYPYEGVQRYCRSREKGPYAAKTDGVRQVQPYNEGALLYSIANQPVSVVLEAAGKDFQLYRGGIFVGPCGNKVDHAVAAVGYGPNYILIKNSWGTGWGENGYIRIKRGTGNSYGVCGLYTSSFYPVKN

cathepsin D [13] = target: T3, cathepsin D (Homo sapiens, UniProt P07339); test: steady state inhibition of cathepsin D hydrolysis of chromophoric substrate
cathepsin D [14] = target: T3, cathepsin D; test: as above; remark: listed apart in the source
papain [15] = target: T2, papain; test: continuous rate enzyme inhibition assay with papain; Ki = kd/ka

bean cystatin
residual protease activity (FITC-hemoglobin), pH 3.5 (% residual activity) [1]: 14

thyroglobulin: protein containing type I repeated thyroglobulin domains [reference compound]
inhibition of cysteine proteases (cysteine proteases): do not inhibit

β-trypsin
limited proteolysis, reverse-phase HPLC and N-terminal sequencing [2]: equistatin was found to be a good substrate for trypsin

CC(C)C[C@H](NC(=O)[C@H]1O[C@@H]1C(=O)O)C(=O)NCCCCN=C(N)N (relative stereo) [E64, N-(L-3-trans carboxyoxiran-22-carbomyl)-L-leucyl-amido-4-guani-dobutane, reference compound]
inhibition of protease activity (leafminer proteases; leafminer): 73% | residual protease activity (leafminer proteases; leafminer pH 3.5, equistatin purified from sea anemone): 27% | inhibition of total protease activity ([3]; Colorado potato beetle, pH3): 24% | residual protease activity ([3]; colorado potato beetle pH 3, recombinant equistatin): 76% | residual protease activity ([4]; western corn rootworm pH 3): 35% | residual protease activity ([4]; western corn rootworm pH 6.5): 51% | residual protease activity (thrips protease activity; thrips pH 3.5, equistatin purified from sea anemone): 8% | inhibition of protease activity (thrips protease activity; thrips, pH 3.5): 92%

p41 invariant chain fragment (from UniProt P04233 194-258)
residual protease activity (FITC-hemoglobin), pH 3.5 (% residual activity) [1]: 13 | residual protease activity (FITC-hemoglobin), pH 3.5 (% residual activity) [5]: 43 | residual amino-peptidase activity (L-Arg-pNA), equimolar inhibitor (% of residual activity) [6]: 85 | residual amino-peptidase activity (L-Arg-pNA), excess inhibitor (% of residual activity) [6]: 75 | residual broad spectrum endoprotease activity (Z-Phe-Arg-pNA), equimolar inhibitor (% of residual activity) [6]: 30 | residual broad spectrum endoprotease activity (Z-Phe-Arg-pNA), excess inhibitor (% of residual activity) [6]: 20 | residual general proteolytic activity (azocasein) in excess of inhibitor (% residual activity) [6]: 10 | residual narrow spectrum endoprotease activity (Z-Arg-Arg-pNA), equimolar inhibitor (% of residual activity) [6]: 20 | residual narrow spectrum endoprotease activity (Z-Arg-Arg-pNA), excess inhibitor (% of residual activity) [6]: -5 | residual tri-peptidil-peptidase and endoprotease activity (pGlu-Phe-Leu-pNA), equimolar inhibitor (% of residual activity) [6]: 10 | residual tri-peptidil-peptidase and endoprotease activity (pGlu-Phe-Leu-pNA), excess inhibitor (% of residual activity) [6]: -5

B1: human stefin A: Type I cystatin (protein, UniProt P01040 1-98, looked up)
Cystatin-A: MIPGGLSEAKPATPEIQEIVDKVKPQLEEKTNETYGKLEAVQYKTQVVAGTNYYIKVRAGDNKYMHLKVFKSLPGQNEDLVLTGYQVDKNKDDELTGF
% of residual activity, equimolar ([7]; equimolar): 95% | % of residual activity, excess inhibitor ([7]; excess inhibitor): 80% | % of residual activity, equimolar ([8]; equimolar): 60% | % of residual activity, excess inhibitor ([8]; excess inhibitor): 10% | % of residual activity, excess inhibitor [9]: 90% | % of residual activity, equimolar ([10]; equimolar): 95% | % of residual activity, excess inhibitor ([10]; excess inhibitor): 90% | Residual activity in excess of inhibitor [11]: 90%

B2: combined second and third domain of equistatin (eq d-2,3) (protein)
chain: AALTLCGMMGAIIVAVPGTCGPPSCLAAGSPAGVGCCASAGGCTCVALLGLGLGGTAGGGAPTCGAHLSGCGGAAILAHSASLAVGMPVPGCLGAGSTAPVGCTPSTGTCTCVAGGGVLVPGSAVAPLAPTC
Ki (papain [12]): > 1 µM | Ki (cathepsin D [13]): 0.0004 µM | Ki (cathepsin D [14]): > 0.0006 µM

B3: first domain of equistatin (eq d-1) (protein)
chain: SLTLCGGLGASAASGLIGTTVPGCLGTGGPGGLGCTGSTGTCTCVAGAGLGILGTLIAGSPACSAAL
koff (papain [12]): 0.0011 s⁻¹ | kon (papain [12]): 1.8e+06 M⁻¹ s⁻¹ | Ki (cathepsin D [13]): > 1 µM | Ki (papain [15]): 0.00061 µM | Ki (cathepsin D [14]): 1000 µM

B4: entactin: protein with domains homologous to type I repeated thyroglobulin domains (protein, UniProt P14543 29-1247, looked up)
Nidogen-1: LSRQELFPFGPGQGDLELEDGDDFVSPALELSGALRFYDRSDIDAVYVTTNGIIATSEPPAKESHPGLFPPTFGAVAPFLADLDTTDGLGKVYYREDLSPSITQRAAECVHRGFPEISFQPSSAVVVTWESVAPYQGPSRDPDQKGKRNTFQAVLASSDSSSYAIFLYPEDGLQFHTTFSKKENNQVPAVVAFSQGSVGFLWKSNGAYNIFANDRESVENLAKSSNSGQQGVWVFEIGSPATTNGVVPADVILGTEDGAEYDDEDEDYDLATTRLGLEDVGTTPFSYKALRRGGADTYSVPSVLSPRRAATERPLGPPTERTRSFQLAVETFHQQHPQVIDVDEVEETGVVFSYNTDSRQTCANNRHQCSVHAECRDYATGFCCSCVAGYTGNGRQCVAEGSPQRVNGKVKGRIFVGSSQVPIVFENTDLHSYVVMNHGRSYTAISTIPETVGYSLLPLAPVGGIIGWMFAVEQDGFKNGFSITGGEFTRQAEVTFVGHPGNLVIKQRFSGIDEHGHLTIDTELEGRVPQIPFGSSVHIEPYTELYHYSTSVITSSSTREYTVTEPERDGASPSRIYTYQWRQTITFQECVHDDSRPALPSTQQLSVDSVFVLYNQEEKILRYALSNSIGPVREGSPDALQNPCYIGTHGCDTNAACRPGPRTQFTCECSIGFRGDGRTCYDIDECSEQPSVCGSHTICNNHPGTFRCECVEGYQFSDEGTCVAVVDQRPINYCETGLHNCDIPQRAQCIYTGGSSYTCSCLPGFSGDGQACQDVDECQPSRCHPDAFCYNTPGSFTCQCKPGYQGDGFRCVPGEVEKTRCQHEREHILGAAGATDPQRPIPPGLFVPECDAHGHYAPTQCHGSTGYCWCVDRDGREVEGTRTRPGMTPPCLSTVAPPIHQGPAVPTAVIPLPPGTHLLFAQTGKIERLPLEGNTMRKTEAKAFLHVPAKVIIGLAFDCVDKMVYWTDITEPSIGRASLHGGEPTTIIRQDLGSPEGIAVDHLGRNIFWTDSNLDRIEVAKLDGTQRRVLFETDLVNPRGIVTDSVRGNLYWTDWNRDNPKIETSYMDGTNRRILVQDDLGLPNGLTFDAFSSQLCWVDAGTNRAECLNPSQPSRRKALEGLQYPFAVTSYGKNLYFTDWKMNSVVALDLAISKETDAFQPHKQTRLYGITTALSQCPQGHNYCSVNNGGCTHLCLATPGSRTCRCPDNTLGVDCIEQK
inhibition of cysteine proteases (cysteine proteases): do not inhibit
